Test [1] concerns the target A3Gctd-CBE (A3Gctd-nCas9-2xUGI).
Test [2] addresses A3A-CBE (A3A-nCas9-2xUGI).
Test [3] has as its target A3Bctd-CBE (A3Bctd-nCas9-2xUGI).

B1: Ade1 (EBV-BORF2) (natural protein)
chain: MATTSHVEHELLSKLIDELKVKANSDPEADVLAGRLLHRLKAESVTHTVAEYLEVFSDKFYDEEFFQMHRDELETRVSAFAQSPAYERIVSSGYLSALRYYDTYLYVGRSGKQESVQHFYMRLAGFCASTTCLYAGLRAALQRARPEIESDMEVFDYYFEHLTSQTVCCSTPFMRFAGVENSTLASCILTTPDLSSEWDVTQALYRHLGRYLFQRAGVGVGVTGAGQDGKHISLLMRMINSHVEYHNYGCKRPVSVAAYMEPWHSQIFKFLETKLPENHERCPGIFTGLFVPELFFKLFRDTPWSDWYLFDPKDAGDLERLYGEEFEREYYRLVTAGKFCGRVSIKSLMFSIVNCAVKAGSPFILLKEACNAHFWRDLQGEAMNAANLCAEVLQPSRKSVATCNLANICLPRCLVNAPLAVRAQRADTQGDELLLALPRLSVTLPGEGAVGDGFSLARLRDATQCATFVVACSILQGSPTYDSRDMASMGLGVQGLADVFADLGWQYTDPPSRSLNKEIFEHMYFTALCTSSLIGLHTRKIFPGFKQSKYAGGWFHWHDWAGTDLSIPREIWSRLSERIVRDGLFNSQFIALMPTSGCAQVTGCSDAFYPFYANASTKVTNKEEALRPNRSFWRHVRLDDREALNLVGGRVSCLPEALRQRYLRFQTAFDYNQEDLIQMSRDRAPFVDQSQSHSLFLREEDAARASTLANLLVRSYELGLKTIMYYCRIEKAADLGVMECKASAALSVPREEQNERSPAEQMPPRPMEPAQVAGPVDIMSKGPGEGPGGWCVPGGLEVCYKYRQLFSEDDLLETDGFTERACESCQ
Consider B1, for which the fold inhibition of base editing by Ade1 at the FANCF site, HEK293T cells (Fig. 2e) amounted to 0.96 fold in test [1]; 3.26 fold with A3A-L1B CBE chimera; 5.67 fold with A3Gctd-L1B CBE chimera; 1.32 fold in the test with A3Gctd-L7B CBE chimera; 1.06 fold in [2]; 5.2 fold in test [3]. In addition, the fold inhibition of base editing by Ade1 at the FANCF site, HEK293T cells (Fig. 2e) was determined as 5.66 fold with A3Gctd-L1L7B CBE chimera, 1.47 fold with A3Bctd-L1A CBE chimera and 1.06 fold with A3Bctd-L7G CBE chimera.

The values above are taken from PMC8807840.
